Assay results: publication PMC9089897 (2022)

What was measured:
[1] = target: T1, biotinylated avi-tagged SARS-CoV-2 (Wuhan) receptor binding domain (RBD) (SARS-CoV-2 (Wuhan strain), UniProt P0DTC2 319-541); test: BLI
[2] = target: T1, biotinylated avi-tagged SARS-CoV-2 …; test: BLI; remark: listed apart in the source

Binder	koff [1] [s⁻¹]	Kd [2] [nM]
THSC20.HVTR26 (IgG) (antibody, V domains shown) VH: EVQLVESGGGLVQPGGSLRLSCAASGFTVSSNYMSWVRQAPGKGLEWVSAIYSGDSTYYADSVKGRFTISRHNPKNTLYLQMNSLRAEDTAVYYCARLVGALTNIVVSGDGGAFDIWGQGTMVTVSS VL: SYELTQPASVSGSPGQSITISCTGTSSDVGSYNLVSWYQQHPGKAPKLMIYEVSKRPSGVSNRFSGSKSGNTASLTISGLQAEDEVDYYCCSYAGSSTWVFGGGTKLTVL	0.000131	0.255
THSC20.HVTR04 (IgG) (antibody, V domains shown) VH: QVQLVESGGGVVQPGRSLRLSCAASGFTFSNYAIHWVRQAPGKGLEWVAVVSYDGSNKYYAESVKGRFTISRDNSKNTLSLQMISLRPEDTAVYYCASVADTAMVPEWYFDLWGQGTMVTVSS VL: QSVLTQPRSVSGSPGQSVTISCTGTSSDVGAYNYVSWYQQHPGKAPKLMIYDVSARPSGVPDRFSGSKSGNTASLTISGLQAEDEADYYCCSYAGSWVFGGGTKLTVL	9.15e-05	–
